Test system: K4 kissing-loop RNA reporter
Experiment: apparent KD of K4 kissing-loop reporter; higher = weaker reporter binding
Conditions: Eterna round: R107
Method: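 RNA-MaP round R107: designed RNA switches with theophylline, tryptophan, arginine or FMN aptamers are transcribed on-chip within common flanks. They are titrated with a labelled K4 kissing-loop RNA reporter in RNA-MaP buffer (100 mM Tris pH 7.5, 80 mM KCl, 4 mM MgCl2), without ligand or with the indicated ligand. Median apparent KD per design.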

[1] = input ligand: theophylline 20 uM
[2] = input ligand: tryptophan 2.4 mM
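Also: bound reporter read as fluorescence of individual clusters on recovered sequencing chips by microscopy, with normalized cluster intensities fitted with a binding model.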

Sequence | apparent KD of K4 kissing-loop reporter (input ligand: FMN 200 uM) [nM] | apparent KD of K4 kissing-loop reporter (input ligand: arginine 13.2 mM) [nM] | apparent KD of K4 kissing-loop reporter (input ligand: none) [nM] | apparent KD of K4 kissing-loop reporter [1] [nM] | apparent KD of K4 kissing-loop reporter [2] [nM]
AGUGAUGUUGAGUGAUGUUAGUGAAGUGAUCGAGGACCGGUACGGCCGCCACUCGAGUGAUGAGUGAGUGAUGUUUGUUUAGUGA [hhbmullin] | 168 | 74.4 | 113 | 120 | 78.2
AGUGAUGUUGAGUUAUCUUAGUGAAGUGAUCGAGGACCGGUACGGCCGCCACUCGAGUGAUGAGUGAGUGAUGUUUGUUUAGUGA [zzymullin] | 546 | 431 | 549 | 593 | 311
AGUGAUGUUUUUUUUAAGAGUGAUGUUUUUCGAGGACCGGUACGGCCGCCACUCGAGUGAGGAGUGCGGUGGUGAGAUGUUGAGU [oomullin] | 549 | 466 | 677 | 589 | 519
AGUGAUGUUUUUUUUAAGAGUGAUGUUUUUCGAGGACCGGUACGGCCGCCACUCGAGUGAUGAGUGAGGUGUGGUGAUGUUUAGU [#09 K4 Tryptophan A Exclusion] | 287 | 279 | 351 | 316 | 205
AGUGAUGUUUUUUUUAAGAGUGAUGUUUUUCGAGGACCGGUACGGCCGCCACUCGAGUGAUGAGUGAGGUGUUGUGAUGUUUAGU [cxmullin] | 436 | 314 | 458 | 504 | 248
AGUGCACUGUCAGGAUAUAUACAGUGAUGUUGUGUAUGUCAGCAAGUCAAAGACUUGCUAUUUUGUAUAGAAGGGACUGUGUACA [whbob_Ex_FMNB__2th222] | 574 | 258 | 294 | 276 | 286
AGUGCAUGCUCGGCCGCCACUCAGAAGAAGAUAGAAGUGAUGUUUCUAAUGAUGAGAAUAAUAAAGAGGACCGGGAGAUGUGCAA [First try] | 122 | 125 | 149 | 164 | 116
AGUGGACGUGUCCGGAGUGAUGUUCCGGAUACCAGACACGAAAGUGUCCCUUGGCAGCAGGAGUGAUGUUCCGGCGUUCACUAAA [Omei KL Theo A Exc B v3] | 351 | 223 | 314 | 347 | 274
AGUGUCAGUGAUGUUGAGAAGAUGGGUACUAAGGAUAUGCGGCGAUGCAGAAGGUAGAAUGAUUAGUUCGCAUGUUAUGAGGGAU [theeternabot_exclusion_KL_FMN_A_46] | 484 | 364 | 573 | 487 | 336
AUAAACUUGCAGUGAUGUUGCAAGUAAGACUAGGAUAUCAGGAAACUGAGAAGGAGUCAUCUCCUUCAAACAUCACUAUGAAGGA [[K1]-[K2]-[F1]-[F2]-[F]'-[K]'-[F]''_Design5] | 507 | 263 | 384 | 413 | 331
AUAAACUUGCAGUGAUGUUGCAAGUAAGACUAGGAUAUCAGGAAGCUGAGAAGGAGUCAUCUCCUUCAAACAUCACUAUGAAGGA [whbob_SS_FMNA__2th177] | 413 | 245 | 289 | 328 | 253
AUAAAUAAUAAUGACUGAGAGUUUGGUGAGCGAGGACCGGUACGGCCGCCACUCGUACAUGAGUGAUGUUCUUGUAUGAGUCAGA [KL-XTryp-A6 #analogue] | 127 | 97.6 | 95.6 | 97.6 | 105
AUAAUCUUGCAGUGAUGUUGCAAGAAAGCUCAGGAUAUCAGGAAACUGAGAAGGGAGCAUCCUGAGCACUUGCAACAGUGCUCAG [[K1]-[K2]-[F1]-[F2]-[F]'-[K]'-[F]''_Design3] | 127 | 100 | 296 | 288 | 117
AUACGCGAUAGCGUAUAUAACAAAUCAGAAGGAGCGUGGAAGUACACAGGUAGGUCGCUGAAAAUAGGACUAGUGAUGUUAGUUA [JR_Nu_SSArginiA_Sub026] | 211 | 193 | 232 | 172 | 166
AUAGGAGUGAUGUUCCUUAGUCCCUCCGAUACCAGUAUGGAAACAUACCCUUGGCAGCGGUGGACCGCAGAUUAGGAAACUAGUC [Theophylline A K4 4] | 232 | 238 | 216 | 231 | 206
AUAGGAGUGAUGUUCCUUAGUUUCUCCGAUACCAGUAUGGAAACAUACCCUUGGCAGCGGUAAACCGCAGAUUAGGAAACUAGUC [Theophylline A K4 2] | 308 | 332 | 324 | 241 | 297
AUAGGCAUAGCCCGAGUGAUGUUCGACGAUACCAGCCUCGAUAGAGGCCCUUGGCAGCGUAAAUGAUCAUGAAGCCAAGGAAUAA [whbob_Ex_Theo_A_th69] | 342 | 313 | 442 | 353 | 313
AUAUACCAGUGAUGUUGGUAUACUAUCGAUACCAGUAGAUACCAAUACCCUUGGCAGCGAUAAGACCGUACUGUAGCCAGUACUU [Theo A SS t4] | 250 | 191 | 255 | 340 | 225
AUAUAGUGAUGUUAUAUAAUAAUCUCUGAUACCAGUCAUUUAGAAGACCCUUGGCAGCAGCUAUAUAUAGGGAAACAAUACAUAA [AstrosExytheA#1] | 739 | 649 | 709 | 925 | 491
AUAUUGGUUGAGAGUGAUGUUCCUUGUGUUCGAGGACCGGUACGGCCGCCACUCGGGUAGAAAAUAAAAGAUGUGUUUGAUUUUU [BDazzled - #13 SS Tryptophan A] | 237 | 101 | 125 | 185 | 212
AUCACAGUGAUGUUGUGAUAUACUUCAGAUACCAGACUAGUGCUAGUCCCUUGGCAGCUGAACUCAGCAGCACCACUAGCACUCG [Theo A Ex t6a] | 153 | 130 | 139 | 144 | 134
AUCACAGUGAUGUUGUGAUAUGAUUCAGAUACCAGACUAGUGCUAGUCCCUUGGCAGCUGAACUCAGCAGCACCACUAGCACUCU [Theo A Ex t6] | 157 | 132 | 148 | 166 | 149

Sequence | apparent KD of K4 kissing-loop reporter (input ligand: FMN 200 uM) [nM] | apparent KD of K4 kissing-loop reporter (input ligand: arginine 13.2 mM) [nM] | apparent KD of K4 kissing-loop reporter (input ligand: none) [nM] | apparent KD of K4 kissing-loop reporter [1] [nM] | apparent KD of K4 kissing-loop reporter [2] [nM]
AUCGAGCCCAUCGGUGAGUCAUUAGUUGAUACCAGAGCUAUUGGCCUCCCUUGGCAGCAAGUAAACCUGUUUAGUGAUGUUAAAC [theeternabot_exclusion_KL_Theo_A_15] | 178 | 150 | 168 | 162 | 157
AUCGGGAAUACGGCCGCCACUAUAGAGGCGACUACAUACCACCACAGUGAUGUUGUGCUGACCAGUAGGACCGGGUAAAAUCGAU [theeternabot_exclusion_KL_Trp_B_49] | 817 | 594 | 871 | 726 | 672
AUCGUUGUCUGAGGAUAUCGAUUAACUGUAGUGAUGUUACAGAAAAUUCAUAUAAUAUUUUCUAUUCGAGAAGGCAGACUACGUA [JR_ExcFMNB_Sub017] | 167 | 135 | 144 | 139 | 144
AUCGUUGUCUGAGGAUAUCGGUUAACUGUAGUGAUGUUACAGAAAAUUCAUAUUAUAUUUUCUAUUCGAGAAGGCAGACUACGUA [JR_Nu3_ExcFMNB_Sub019] | 203 | 141 | 160 | 145 | 157
AUCUCGGUAUCAGAUACCAGACUAUCGAUACCGAGUGUAUCGGGUAGUGAUGUUACCAUAGUCCCUUGGCAGCUGGUAGUUCAUA [Theo B SS t9c] | 256 | 249 | 261 | 280 | 213
AUCUUGCAUUCGGCCGCCACUAUCGUGCAGUGAUGUUGCGCGAGUGACGCGUCCCGCAGUGCAGGUAGGACCGGGAAUGAUACCC [Erlazaar] | 128 | 119 | 123 | 112 | 125
AUGAGGAACAGUGAUCCUACUCCAUGGGAAGGAGCGUAGGAUACUACAGGUAGGUCGCCCAGUGAUGUUGGGCGCGUGUUCUUGG [Ermaar] | 116 | 114 | 115 | 161 | 113
AUGAGGAACAGUGAUCCUAUUCCAUGGGAAGGAGCGUAGGAUACUACAGGUAGGUCGCCCAGUGAUGUUGGGCGCGUGUUCUUGG [Soririza] | 120 | 112 | 113 | 140 | 117
AUGCGCGCGGCGGCCGCCACUCGCAUGAGAGUGAUGUUCUCGCCGUGACCGUAAGGUCGCGGUGUGAGGACCGGGCCGGGCUGCG [#2 Same State - Tryptophan B Attempt #22 (HarryS)] | 197 | 71.5 | 69.7 | 213 | 321
AUGCGCGUGCGAUGCAAAUCGCACGCGCAUCGAGGACCGGUACGGCCGCCACUCGCUCGCGCCGAGUGAUGUUCGGCCGGCGAAC [#2 Same State - Tryptophan A Attempt #6 (HarryS)] | 258 | 243 | 269 | 327 | 565
AUGCGUUGCACGGCCGCCACUGAUAUUAUGCUUCAGGAUGCUUCUGAAAGUGAUGUUUUCAGAUCCAGGACCGGGUGCCAAGAUU [theeternabot_sameState_KL_Trp_B_17] | 104 | 88.2 | 98.3 | 92.3 | 98.8
AUGCUUUUAAUAACACUAUAUACAACUGAAGGAGCGACAAUAAAGUCAGGUAGGUCGCAGAAUAAAUGAGUGAUGUUCAUUUUUA [JR_ExcArginiA_Sub009] | 82.2 | 130 | 92.2 | 119 | 63.9
AUGGGCACGUCGGCCGCCACUACACGGUCCCGCGAGGGCCAGUGAUGUUGGUCGACGUGCCGUUGUAGGACCGGGACGUGGCUGU [Teatondi] | 125 | 54.5 | 79 | 103 | 83.3
AUGGGUCCACGAAGGAGCGCCGUGGAGUGAUGUUCCGGUUAGAUCCAGUGAUGUUGGGCCCGGCAGGUAGGUCGCGUGGACUCAU [Exclusion Arginine B GF 23] | 720 | 522 | 586 | 729 | 533
AUGUCUGAUAGCAGUGAUGUUGCUUCGGAUACCAGACGAGAUCAUGUCCCUUGGCAGCUGACACGGCACGUGCUAGGUUAGAUGG [whbob_Ex_Theo_A_th73] | 121 | 115 | 111 | 94.7 | 115
AUGUCUGAUAGCAGUGAUGUUGCUUCGGAUACCAGACGCGAUCAUGUCCCUUGGCAGCUGACACGGCACGUGCUAGGUUAGAUGG [whbob_Ex_Theo_A_th74] | 123 | 94.5 | 105 | 112 | 95.9
AUUAAUAACAGAGGAUAUGCAUUUUUAUUAUUUUUAAAUAUUAAAUGCAGUGAUGUUGCAUAUUAAGCAGAAGGCUGAUUUAUUU [JR_SSFMNB_Sub012] | 117 | 271 | 211 | 279 | 147
AUUAAUAACUGAGGAUAUCGAAAUUAUGUAGUGAUGUUACUGUAAAUUCAAAUUUUCAUUUCUUAACGAGAAGGCAGAAUAAUUA [JR_ExcFMNB_Sub012] | 173 | 185 | 115 | 200 | 86.8
AUUAAUUUCAGAGGAUAUCGUAUUAAUAUUUUAUCUAUCUAUAUAUGCAGUGAUGUUGCAAUAAUUCGAGAAGGCUGAUUUAUAA [JR_ExcFMNB_Sub009] | 93.9 | 101 | 52.3 | 91.8 | 47.7
AUUCAGAUCUGAAGGAGCGCGUUAAGUCAAUGCUUCAUAGAGCAGUGAUGUUGCUCUGAAACGCAGGUAGGUCGCAGAUCUGACC [Arg B SS t17] | 295 | 250 | 325 | 288 | 287
AUUCAUUUCAGAGGAUAUCGAAGGAGAGUGAUGUUCUCCCAUAGCCCAGUGAUGUUGGAAGCUAUUCGAGAAGGCUGUGGGUGGA [Same State FMN B GF 26] | 178 | 270 | 271 | 222 | 216
